Patent US20160039904A1, “STABILIZED SINGLE HUMAN CD4 DOMAINS AND FUSION PROTEINS” (priority 2013, published 2016)

Key:
Format in all cases: cell-based
HIV-1 Env JRFL = experiment: HIV-1 Env-mediated cell-cell fusion; conditions: Table 4, clade B, R5
HIV-1 Bal = experiment: Pseudotyped HIV-1 neutralization (HOS-CD4-CCR5 cells); conditions: Table 2, clade B, R5
Description: (§1) To determine the potency and breadth of HIV-1 neutralization by the D1 mutants, viruses pseudotyped with Envs from HIV-1 isolates representing clades A-E and using either CCR5 (R5) or CXCR4 (X4) or both (R5X4) as a coreceptor were included. Pseudoviruses were derived from 293T cells and a neutralization assay was performed in duplicate using HOS-CD4-CCR5 (for all R5 and dual tropic viruses) or HOS-CD4-CXCR4 cell lines as described in Chen et al., Proc. Natl. Acad. Sci. USA, 105: 17121-17126 (2008)). Luminescence was measured 48 hours post-infection and the percentage neutralization was calculated by the following formula: (1—average RLU of inhibitor-containing wells/average RLU or virus-only wells)×100.

HIV-1 JRFL = experiment: as above; conditions: Table 2, clade B, R5
Description: as §1

HIV-1 Env Bal = experiment: HIV-1 Env-mediated cell-cell fusion; conditions: Table 4, clade B, R5

B1: m36.4: engineered single human antibody domain targeting a CD4i epitope on HIV-1 gp120, SEQ ID NO: 15 (antibody, V domains shown)
VH: QVQLVQSGGGLVQPGGSLRLSCAASAFDFSDYEMSWVREAPGKGLEWIGEINDSGNTIYNPSLKSRVTISRDNSKNTLYLQMNTLRAEDTAIYYCAIYGGNSGGEYWGQGTLVTVSS
IC50 (HIV-1 Env JRFL): 128 nM | IC90 (HIV-1 Env JRFL): 1080 nM | IC50 (HIV-1 Bal): 16 nM | IC90 (HIV-1 Bal): 75 nM | IC50 (HIV-1 JRFL): 18 nM | IC90 (HIV-1 JRFL): 106 nM | IC90 (HIV-1 Env Bal): 235 nM
